Data on six molecules can be found in US20250115663A1 (CELLDEX THERAPEUTICS, published 2025).

For orientation: koff means the first-order rate constant of dissociation. The low end stands for a long-lived complex, the high end for a short-lived complex. For orientation: Kd means the equilibrium constant for the complex coming apart. What is called kon is a measure of how fast the partners come together. The term EC50 (read off the curve) denotes the concentration needed to bring the measured effect to its halfway point.

Assay [1] has as its target T1, soluble human CD40-MsIgG2a (human, UniProt P25942).
T1 construct: soluble, fused to mouse IgG2a; also called recombinant human CD40-msG2a chimeric protein; CD40-MsIgG2a (Celldex, 60 kD by SDS-PAGE)
Description: BLI (Octet QKe), antibody captured on anti-human Fc (AHC) biosensors, analyte soluble human CD40-MsIgG2a 3.13 to 0.098 nM, 25 C, 1:1 fit; column head kdis(1/s). The method, then: (§1) Purified antibodies from Example 1 were captured on Anti-Human Fc Capture (AHC) biosensors (Fortebio Product No. 18-5060). Each antibody was prepared in dilution buffer (10mMPO4+150 mM NaCl+1 mg/mL BSA+0.5% Tween 20, pH 7.2) to 0.5 μg/mL and loaded on freshly hydrated AHC biosensors for 35-50 sec at 25° C. and 1000 rpm plate shake speed to achieve a target response of 0.2 nm. Low levels of ligand were captured to limit any effects of mass transport of analyte on kinetic parameters. For one assay, eight biosensors were loaded with the same antibody.
(§2) Binding was determined by exposing six of the antibody loaded biosensors to analyte: soluble human CD40-MsIgG2a (Celldex, 60 kD by SDS-PAGE). Affinity measurements were determined using 2-fold serial dilutions of analyte ranging from 3.13 to 0.098 nM in dilution buffer at 25° C. and 1000 rpm plate shake speed. Association of the antibody loaded biosensors in analyte wells was carried out for 1200 seconds, the biosensors were then moved to dilution buffer wells for 2.5 hrs (9000 sec) for dissociation measurements.
(§3) Fortebio's Data Analysis Software version 8.2.0.7 (Pall ForteBio, Menlo Park, CA) was used in each case to derive kinetic parameters from the concentration series of analyte in dilution buffer binding to captured antibody. The association and dissociation curves were fitted to a 1:1 binding model using the data analysis software according to the manufacturer's guidelines.

Assay [2] deals with T1, soluble human CD40-MsIgG2a. The experiment in a line: BLI (Octet QKe), antibody captured on anti-human Fc (AHC) biosensors, analyte soluble human CD40-MsIgG2a 3.13 to 0.098 nM, 25 C, 1:1 fit. The method, then:
as §1, §2, §3
(In BLI a coated tip is dipped into the sample, and binding shifts an interference pattern.)

Assay [3] concerns the target T2, recombinant human CD40-Fc (human, UniProt P25942 21-193).
T2 construct: also called soluble recombinant human CD40/Fc chimera from R&D Systems; not shown: The antibody Fc domain of the R&D Systems chimera and any linker to it
Description: ELISA on coated recombinant human CD40-Fc, detection anti-human IgG F(ab')2-HRP, OD 450-650 (the y axis is labelled 'Median Fluorescence'). On the procedure: Microtiter plates were coated with recombinant human CD40-Fc in PBS, and then blocked with 5% bovine serum albumin in PBS. Protein A purified human mAbs from Example 1 and an isotype control were added at various concentrations and incubated at 37° C. The plates were washed with PBS/Tween and then incubated with a goat-anti-human IgG F(ab′)2-specific polyclonal reagent conjugated to horseradish peroxidase at 37° C. After washing, the plates were developed with HRP substrate, and analyzed at OD 450-650 using a microtiter plate reader.
On the technique in general: ELISA stands for enzyme-linked immunosorbent assay.

The target of assay [4] is T2, recombinant human CD40-Fc. Description: ELISA on coated recombinant human CD40-Fc, detection anti-human IgG F(ab')2-HRP, OD 450-650. On the procedure: Microtiter plates were coated with recombinant human CD40-Fc in PBS, and then blocked with 5% bovine serum albumin in PBS. […] The plates were washed with PBS/Tween and then incubated with a goat-anti-human IgG F(ab′)2-specific polyclonal reagent conjugated to horseradish peroxidase at 37° C. After washing, the plates were developed with HRP substrate, and analyzed at OD 450-650 using a microtiter plate reader.

T1 sequence (P25942 21-193 limits assumed): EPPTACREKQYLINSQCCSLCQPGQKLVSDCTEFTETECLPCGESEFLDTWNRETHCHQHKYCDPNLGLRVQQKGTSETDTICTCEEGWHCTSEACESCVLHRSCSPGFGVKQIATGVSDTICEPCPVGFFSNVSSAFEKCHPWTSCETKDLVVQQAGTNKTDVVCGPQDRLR
T2 sequence (P25942 21-193 limits assumed, form in doubt): as the sequence (P25942 21-193 limits assumed) above

B1: anti-CD40 human monoclonal antibody 3B6 (antibody, human IgG2, V domains shown)
VH: EVQLLESGGGLVQPGGSLRLSCAASGFTFSSYAMSWVRQAPGKGLEWVSGITGTGGSTYYADSVKGRFTISRDNSKNTLYVQMNSLRAEDTAVYYCAKRAGGSFYYYYGMDVWGQGTTVTVSS
VL: DIVMTQSPLSLPVTPGEPASISCRSSQSLLHSTGYNYLDWYLQKPGQSPQLLIYLGSNRASGVPDRFNGSGSGTDFTLKISRVEAEDFGVYYCMQALQTPWTFGHGTKVEIK
notes: Human IgG2
B1: the koff in assay [1] was determined as 6.14e-06 s⁻¹. Moreover, in assay [2], the Kd was 0.0079 nM and the kon is 782000 M⁻¹ s⁻¹.

B2: anti-CD40 human monoclonal antibody 1B5-NK (antibody, human IgG2, V domains shown)
VH: QVQLVESGGGVVQPGRSLRLSCAASGFTFSSFGMHWVRQAPGKGLEWVTLIWFDGSSKYYADSVKGRFTISRDNSKNTLYLQMNSLRAEDTAVYYCVRGFAAVAGWYFDFWGRGTLVTVSS
VL: DIQMTQSPSSLSASVGDRVTITCRASQGVRKYLAWYQQKPGKVPKLLIYAASTLQSGVPSRFSGSGSGTDFTLTISSLQPEDVATYYCQKYFSAPYTFGQGTKLEIK
notes: Human IgG2
For the molecule B2, in assay [3], the “EC50 (read off the curve)” value is approximately 0.09 µg/mL.

B3: F(ab')2 fragment of antibody 3C3 (other)
VH: QVQLVESGGGVVQPGRSLRLSCAGSGFIFSRYGMYWVRQAPGKGLEWVAVIWYDGSYKYYADSVKGRFTISRDNSKNTLYLQMNSLRAEDTAVYYCARESPWYYFDYWGQGTLVTVSS
VL: DIQMTQSPSSLSASVGDRVTITCRASQGISNYLAWYQQKPGKVPKLLIYAASTLQSGVPSRFSGSGSGTDFTLTISSLQPEDVATYYCQKYKSAPFTFGPGTKVDIK
notes: F(ab')2 version of the IgG2 antibody, lacking the Fc domain; also called 3C3 F(ab')2
As to B3, the “EC50 (read off the curve)” value in assay [4] was approximately 0.4 nM.

B4: anti-CD40 human monoclonal antibody 1B4 (antibody, human IgG2, V domains shown)
VH: EVQLLESGGGLVQPGGSLRLSCAASGFTFSSYAMTWVRQVPGKGLEWVSGITGSGANTFYTDSVKGRFTISRDNSNNSLYLQMNSLRADDTAVYYCAKRNGGSYYYYYGMDVWGQGTTVTVSS
VL: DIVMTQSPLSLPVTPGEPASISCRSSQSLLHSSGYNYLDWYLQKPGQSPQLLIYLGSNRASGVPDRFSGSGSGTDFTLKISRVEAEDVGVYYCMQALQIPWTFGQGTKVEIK
notes: Human IgG2
In turn, B4 registered a koff in assay [1] of 8.76e-06 s⁻¹. In assay [2], the Kd stood at 0.0105 nM and the kon worked out at 832000 M⁻¹ s⁻¹.

B5: anti-CD40 human monoclonal antibody 6H6 (antibody, human IgG2, V domains shown)
VH: QVQLVESGGGVVQPGRSLRFSCAASGFTLSSYGMHWVRQAPGKGLEWVAVIWDDGSNKYYADSVKGRFTISRDNSKNTLYLQMNSLRAEDTAVYYCARAGGSGRYYNYFDYWGQGTLVTVSS
VL: EIVMTQSPATLSVSPGERATLSCRASQSVRSNLAWYQQKPGQAPRLLIYGASTRATGIPARFSGSGSGTDFTLTISSLQSEDFAVYYCQQHNNWLTFGGGTKVEIK
notes: Human IgG2
In assay [1], B5 returned a dissociation rate constant (koff) of 2.49e-06 s⁻¹. Further, in assay [2], the Kd came to 0.0028 nM and the kon was 905000 M⁻¹ s⁻¹.

B6: F(ab')2 fragment of antibody 3G5 (other)
VH: QVQLVESGGGVVQPGKSLRLSCAASGFTFSSNGIHWVRQAPGKGLEWVAVIWSDGSNKFYADSVKGRFTISRDNSKNTLYLQMNSLRAEDTAVYYCARASGSGSYYNFFDYWGQGTLVTVSS
VL: EIVMTQSPATLSVSPGERATLSCRASQSVRSNLAWYQQKPGQAPRLLIYGASTRATGIPARFSGSGSGTEFTLTINSLQSEDFAVYYCQQHNKWITFGQGTRLEIK
notes: F(ab')2 version of the IgG2 antibody, lacking the Fc domain; also called 3G5 F(ab')2
With B6, the “EC50 (read off the curve)” value in assay [4] is approximately 0.3 nM.
